Reference: patent publication US5710126A, “T cell epitopes of ryegrass pollen allergen” (ImmuLogic Pharmaceutical Corporation, priority 1995, dated 1998)
Each block holds one molecule with its values, some of them ahead of it.

How the values were obtained:
[1] = system: T cell lines from grass-allergic patients primed in vitro with affinity purified Lol p V; assay: T cell proliferation (tritiated thymidine uptake) of Lol p V-primed T cell lines restimulated with peptides or proteins; assay type: cell-based, human; settings: one allergic patient; results not shown; 2-50 μg/ml antigen
Text: As discussed in Example 2, human T cell stimulating activity can be tested by culturing T cells obtained from an individual sensitive to Lol p V allergen, (i.e., an individual who has an IgE mediated immune response to Lol p V allergen) with a peptide derived from the allergen and determining whether proliferation of T cells occurs in response to the peptide as measured, e.g., by cellular uptake of tritiated thymidine. Stimulation indices for responses by T cells to peptides can be calculated as the maximum CPM in response to a peptide divided by the control CPM. A stimulation index (S.I.) equal to or greater than two times the background level is considered "positive". […]
In addition, preferred peptides have a positivity index (P.I.) of at least about 60, more preferably about 100, more preferably at least about 200 and most preferably at least about 300. The positivity index for a peptide is determined by multiplying the mean T cell stimulation index by the percent of individuals, in a population of individuals sensitive to ryegrass pollen (e.g., preferably a population of at least 15 individuals,more preferably a population of at least 30 individuals or more), who have a T cell stimulation index to such peptide of at least 2.0. […]
This amount of priming antigen was determined to be optimal for the activation of T cells from most grass-allergic patients. […]

[2] = system: human IgE; assay: Direct ELISA of human IgE binding to coated antigen
Method: (§1) To examine the importance of Lol p V, both direct and competition ELISA assays were performed. In the direct ELISA, 100 μl of 10 μg/ml of antigen in Phosphate Buffered Saline, pH 7.4 (PBS) was used to coat Immulon II (Dynatech, Chantilly, Va.) 96 well plates for 4 hours at room temperature (RT) or overnight (O/N) at 4° C. In between each step the plates were washed 3× with PBS-T. The excess coating antigen(s) was removed and the wells blocked with 300 μl/well 0.5% gelatin+1 mg/ml PVP in PBS for 1 hour at RT. Serially diluted patient plasma or the diluent PBS+0.05% Tween^-20 was incubated in at 100 μl/well in duplicate wells overnight at 4° C. […] Plates were read on a MR7000 plate reader (Dynatech, Chantilly, Va.) with a 450 nm filter. The absorbance levels of duplicate wells were averaged. The results were graphed as absorbance vs. dilution. […] The results are plotted as the absorbance vs. the log of the concentration of competing antigen.
For the direct ELISA, wells were coated with either soluble pollen extract (SPE) of ryegrass pollen or rLol p V (purified native Lol p V may have a small amount of Lol p I; use of recombinant material assures that the IgE binding is only to Lol p V ) and human IgE antibody binding to these antigens was analyzed. […]

[3] = system: human basophil mediator release; assay: Histamine release assay on whole blood of a ryegrass allergic individual; assay type: cell-based; settings: one ryegrass allergic individual; 37° C., 30 minutes; FIG. 12
Method: A histamine release assay was performed on one ryegrass allergic individual, using Lol p SPE and rLol p V as the added antigens. This assay is a measure of IgE reactivity through human basophil mediator release, and it is based on the detection of an acylated derivative of histamine using a specific monoclonal antibody (Morel, A. M. and Delaage, M. A.; 1988, J. Allergy Clin. Immunol. 82:646-654). The reagents for this radioimmunoassay are sold as a kit by Amac Inc. (Westbrook, Me.). Whole heparinized blood drawn from a grass allergic individual and then 200 μl aliquots were mixed with an equal amount of the grass antigens SPE and rLol p V at various concentrations or the diluent, PACM buffer (25 mM PIPES, 100 mM NaCl, 5 mM KCL, 4 mM CaCl2, 1 mM MgCl2, 0.003% HSA, pH7.3) in 1.5 ml polypropylene. The release reactions were carried out at 37° C. for 30 minutes. After this incubation, the samples were centrifuged at 1500 RPM for 3 minutes and the supernatants removed. For the total histamine release, 0.1 ml of blood was added to 0.9 ml of PACM buffer, vortexed, and then boiled for 3 minutes. The samples were spun at 13000 RPM and the supernatant removed for analysis. Duplicate samples were used to measure total release. All of the supernatants are diluted 1:4 in acylation buffer and the remainder of the assay is performed according to the manufacturer's instructions.

[4] = system: human IgE binding to ryegrass pollen SPE; assay: Competition ELISA for IgE binding to ryegrass pollen SPE; settings: IgE source PHP-A or individual patient plasma; FIGS. 10 and 11
Method: as §1
In the competition assay, ELISA wells were coated with ryegrass pollen SPE and then allergic patient IgE binding was measured in the presence of competing ryegrass pollen SPE, purified native Lol p V, or rLol p V. The source of allergic IgE in this assay was PHP-A (FIG. 10) or individual patient plasma (FIG. 11). […]

[5] = system: specific IgE antibody; settings: immunoblotting; Lol p V isoforms; WO 93/04174; cited from earlier work

IgE binding in direct ELISA ([2]; IgE source PHP-A, PHP-B or four individual patients, FIGS. 6-9): high IgE binding | IgE binding in direct ELISA to Lol p V peptides and protein ([2]; IgE source PHP-B, preliminary assay, FIGS. 13a and 13b): very high IgE binding
B1: rLol p V: bacterially expressed recombinant Lol p V encoded by clone 12R, with His6 sequence, purified on Ni chelating column (protein)
chain: ADAGYTPAAAATPATPAATPAAAGGKATTDEQKLLEDVNAGFKAAVAAAANAPPADKFKIFEAAFSESSKGLLATSAAKAPGLIPKLDTAYDVAYKAAEGATPEAKYDAFVTALTEALRVIAGALEVHAVKPATEEVPAAKIPTGELQIVDKIDAAFKIAATAANAAPTNDKFTVFESAFNKALNECTGGAYETYKFIPSLEAAVKQAYAATVAAAPEVKYAVFEAALTKAITAMTQAQKAGKPAAAAATGAATVATGAATAAAGAATAAAGGYKA
T cell proliferative response of one patient [1]: responds well | histamine release [3]: strong histamine release over a wide concentration range

B2: purified native Lol p V: Lol p V allergen affinity purified from ryegrass pollen extract on a mAb 1B9 column (protein)
chain: B1 chain
modifications: The 5 proline residues at the N-terminus were found to be all hydroxyprolines
T cell proliferative response of one patient [1]: responds well

B3: Lol p V: major Lolium perenne L. ryegrass pollen allergen, Group V allergen (protein)
chain: B1 chain
competition for IgE binding to ryegrass pollen SPE [4]: a significant portion of IgE against Lol p SPE is specific for Lol p V | ryegrass pollen sensitive patients possessing specific IgE antibody that bound [5]: 80%
